Laboratory results published in the Human Domainome abundance scans (Beltran et al. 2025).
± gives the uncertainty stated by the source.

B1: Membrane-associated guanylate kinase, WW and PDZ domain-containing protein 2, residues 296 to 340; numbered along this chain, Q86UL8 (parent)
chain: EDNEEPDPLPDNWEMAYTEKGEVYFIDHNTKTTSWLDPRLAKKAK
B2: Zinc finger MYM-type protein 3, residues 405 to 444; numbered along this chain, Q14202 (parent)
chain: DATRCSICQKTGEVLHEVSNGSVVHRLCSDSCFSKFRANK

Variants of: B1
Experiment: abundance fitness (aPCA) (normalised: wild type 0, dead -1); higher = more abundant; growth selection in yeast, the domain comes from the species named
Details: Homo sapiens

Abundance fitness, by site and new letter:
D37: Q -0.607 ± 0.087; L -0.699 ± 0.042; T -0.675 ± 0.055; G -0.51 ± 0.047; A -0.431 ± 0.042; V -0.595 ± 0.048; K -0.246 ± 0.065; W -0.671 ± 0.045; M -0.533 ± 0.071; F -0.846 ± 0.14; Y -0.697 ± 0.13; R -0.152 ± 0.039; E -0.569 ± 0.073; P -0.456 ± 0.064; I -0.832 ± 0.075; H -0.623 ± 0.2; N -0.184 ± 0.4; S -0.456 ± 0.041
R39: A -0.514 ± 0.049; V -0.52 ± 0.045; T -0.366 ± 0.1; H -0.419 ± 0.13; N -0.289 ± 0.15; L -0.63 ± 0.046; M -0.599 ± 0.056; Q -0.497 ± 0.054; K -0.411 ± 0.058; W -0.607 ± 0.059; C -0.478 ± 0.08; P -0.633 ± 0.069; S -0.395 ± 0.044; Y -0.769 ± 0.15; G -0.46 ± 0.06
V23: W -0.295 ± 0.05; P -0.038 ± 0.099; Q 0.14 ± 0.077; E -0.038 ± 0.046; L -0.062 ± 0.072; G -0.088 ± 0.066
E22: G -0.359 ± 0.042; F -0.645 ± 0.43; N -0.314 ± 0.08; D -0.091 ± 0.05; S -0.227 ± 0.046; I -0.517 ± 0.12; V -0.325 ± 0.048; W -0.551 ± 0.051; L -0.321 ± 0.063; A -0.228 ± 0.052; R -0.409 ± 0.048; P -0.825 ± 0.13; C -0.377 ± 0.095; Q -0.084 ± 0.065; K -0.234 ± 0.065; T -0.295 ± 0.063; Y -0.404 ± 0.067; M -0.314 ± 0.061
A41: F -0.113 ± 0.085; L -0.297 ± 0.29; G 0.138 ± 0.12; R -0.058 ± 0.077
T33: L -0.635 ± 0.075; Q -0.637 ± 0.068; A -0.438 ± 0.048; S -0.236 ± 0.045; D -0.848 ± 0.067; K -0.492 ± 0.047; P -0.841 ± 0.074; V -0.272 ± 0.046; C 0.021 ± 0.063; N -0.341 ± 0.077; E -0.655 ± 0.06; W -0.763 ± 0.056; M -0.488 ± 0.08; G -0.776 ± 0.043; I -0.507 ± 0.11
K43: I -0.139 ± 0.48; L -0.113 ± 0.053; D 0.029 ± 0.12; W -0.2 ± 0.075; N -0.324 ± 0.42; T -0.043 ± 0.12; A 0.062 ± 0.085; R 0.023 ± 0.063; F -0.142 ± 0.093; G 0.066 ± 0.047; V 0.023 ± 0.094
G21: W -0.593 ± 0.091; D -0.169 ± 0.076; L -0.329 ± 0.084; Q -0.047 ± 0.055; S -0.208 ± 0.069; E -0.14 ± 0.054; F -0.33 ± 0.086; V -0.975 ± 0.072; I -0.865 ± 0.25; Y -0.337 ± 0.13; H -0.081 ± 0.14; K -0.163 ± 0.084; P -0.709 ± 0.16; C -0.26 ± 0.07; R -0.174 ± 0.049; M -0.152 ± 0.079
F25: V -1.05 ± 0.08; R -0.715 ± 0.063; K -0.637 ± 0.12; S -0.777 ± 0.066; E -0.661 ± 0.14; T -0.839 ± 0.077; G -0.75 ± 0.054; L -0.896 ± 0.064; N -0.756 ± 0.1; W -0.103 ± 0.09
S34: L -1.14 ± 0.15; W -0.784 ± 0.26; R -0.629 ± 0.073; C -0.181 ± 0.1; V -0.758 ± 0.12; E -0.826 ± 0.12; G -0.463 ± 0.076; A -0.43 ± 0.064
A44: V -0.009 ± 0.064; E 0.07 ± 0.064; L -0.111 ± 0.063; W -0.118 ± 0.087; R -0.076 ± 0.056
Y24: W -0.568 ± 0.049; G -0.816 ± 0.048; P -1.07 ± 0.21; A -0.664 ± 0.075; S -0.703 ± 0.083; T -0.872 ± 0.097; Q -0.809 ± 0.11; N -1.08 ± 0.49; V -0.598 ± 0.074; D -0.618 ± 0.084; R -0.86 ± 0.071; C -0.546 ± 0.28; L -0.557 ± 0.09
D27: I -1.58 ± 0.32; P -1.09 ± 0.22; M -1.03 ± 0.091; G -0.937 ± 0.074; V -1.39 ± 0.1; A -0.786 ± 0.12; Y -0.217 ± 0.38; E -0.487 ± 0.072; R -0.667 ± 0.1; N -0.151 ± 0.082; C -0.544 ± 0.13; L -1.3 ± 0.091
I26: H -0.618 ± 0.077; C -0.258 ± 0.093; M 0.023 ± 0.16; L -0.089 ± 0.068; R -0.379 ± 0.056; A -0.521 ± 0.073; D -1.15 ± 0.16; V 0.01 ± 0.069; E -0.585 ± 0.077; W -0.691 ± 0.1; S -0.677 ± 0.084; F -0.549 ± 0.17; T -0.733 ± 0.35; Q -0.259 ± 0.11
K45: Q 0.1 ± 0.21; G 0.081 ± 0.067; V 0.209 ± 0.28; E -0.022 ± 0.098; W -0.01 ± 0.087; R 0.199 ± 0.23; S 0.076 ± 0.074
H28: P -0.652 ± 0.065; F -0.267 ± 0.18; A -0.417 ± 0.045; W -0.334 ± 0.044; E -0.642 ± 0.088; Y -0.525 ± 0.079; K -0.269 ± 0.1; R -0.243 ± 0.045; G -0.431 ± 0.044; V -0.407 ± 0.063; Q -0.267 ± 0.06
K42: P 0.128 ± 0.066; V 0.079 ± 0.093; L 0.046 ± 0.22; Y -0.033 ± 0.11; D -0.05 ± 0.18; T -0.148 ± 0.15; R 0.021 ± 0.046; N 0.032 ± 0.18; W 0.089 ± 0.094; E 0.035 ± 0.062; G 0.014 ± 0.046; M 0.011 ± 0.071; C 0.097 ± 0.077; A 0.085 ± 0.051
W35: S -0.436 ± 0.054; Q -0.365 ± 0.065; K -0.494 ± 0.078; A -0.489 ± 0.042; C -0.527 ± 0.072; I -0.492 ± 0.055; R -0.362 ± 0.043; Y -0.036 ± 0.068; P -0.668 ± 0.089; M -0.247 ± 0.054; F -0.083 ± 0.1; V -0.473 ± 0.063; D -0.547 ± 0.1; T -0.451 ± 0.089; G -0.523 ± 0.039
K31: G -0.074 ± 0.038; D -0.38 ± 0.091; V -0.473 ± 0.048; Q 0.013 ± 0.056; M -0.008 ± 0.058; W -0.2 ± 0.058; T -0.355 ± 0.071; C -0.024 ± 0.055; H 0.103 ± 0.11; E -0.08 ± 0.043; P -0.675 ± 0.076; S -0.114 ± 0.054; I -0.498 ± 0.079; L -0.155 ± 0.048; R 0.005 ± 0.039; Y -0.235 ± 0.11
P38: V -0.979 ± 0.26
T32: K -0.303 ± 0.12; M -0.071 ± 0.069; Q -0.199 ± 0.067; V -0.111 ± 0.045; S -0.08 ± 0.064; C 0.007 ± 0.11; N -0.353 ± 0.088; H -0.434 ± 0.063; R -0.269 ± 0.05; W -0.325 ± 0.073; F -0.843 ± 0.37
L36: T -0.127 ± 0.061; A -0.117 ± 0.067; E -0.111 ± 0.079; V 0.025 ± 0.042; G -0.198 ± 0.057; N -0.186 ± 0.09; D -0.227 ± 0.12; R -0.051 ± 0.044; P -0.776 ± 0.099; W -0.078 ± 0.087; F -0.184 ± 0.11; I 0.086 ± 0.14; H -0.298 ± 0.17; S -0.125 ± 0.045; M -0.053 ± 0.078; C 0.153 ± 0.12; K -0.012 ± 0.054
N29: R -0.082 ± 0.05; T -0.02 ± 0.058; P -0.673 ± 0.079; A 0.022 ± 0.069; Q -0.13 ± 0.12; D -0.109 ± 0.089; G -0.019 ± 0.049; W -0.151 ± 0.056; E -0.081 ± 0.091; V -0.051 ± 0.069; S -0.011 ± 0.06; Y -0.122 ± 0.13; L -0.059 ± 0.05
L40: V 0.043 ± 0.045; T 0.012 ± 0.11; S -0.022 ± 0.057; N 0.117 ± 0.1; Q 0.024 ± 0.083; G 0.076 ± 0.052; A 0.059 ± 0.068; W -0.133 ± 0.059; K 0.091 ± 0.077; R -0.002 ± 0.053; E 0.034 ± 0.088; P 0.043 ± 0.056
T30: C -0.185 ± 0.061; D -0.324 ± 0.088; A -0.107 ± 0.042; V -0.386 ± 0.049; M -0.388 ± 0.34; F -0.575 ± 0.13; Q -0.155 ± 0.079; R -0.183 ± 0.038; P -1.17 ± 0.076; S 0.122 ± 0.075; L -0.221 ± 0.058; G -0.256 ± 0.037; E -0.156 ± 0.067

Variants of: B2
Experiment: as above
Details: Homo sapiens

Abundance fitness of substitutions, site by site:
L27: Q -0.294 ± 0.07
S19: K 0.176 ± 0.068; F -0.101 ± 0.11; A -0.215 ± 0.058; M -0.12 ± 0.079
Q9: T -0.195 ± 0.074
D30: E -0.041 ± 0.066; W -1.07 ± 0.12; C -1.66 ± 0.31; T -0.219 ± 0.066
S31: I 0.064 ± 0.15; R 0.047 ± 0.053
S29: F -1.05 ± 0.14
I7: F -0.13 ± 0.12; P -0.804 ± 0.14; D -0.376 ± 0.07
C5: G -0.914 ± 0.068
F33: H 0.073 ± 0.095
A2: P -0.225 ± 0.068
H16: T -0.352 ± 0.063
S6: E -0.103 ± 0.065
C32: F -0.968 ± 0.16; I -0.587 ± 0.19; V -0.742 ± 0.068
K35: L -0.127 ± 0.055
F36: Y -0.22 ± 0.089
V23: E 0.103 ± 0.057; S 0.007 ± 0.056; W -0.757 ± 0.076
T11: V -0.452 ± 0.064; R -0.287 ± 0.058
A38: R -0.199 ± 0.052; S -0.2 ± 0.061
V14: C -0.453 ± 0.087
D1: V 0.083 ± 0.065
C8: P -0.912 ± 0.11
E13: P -0.236 ± 0.079
S34: R 0.076 ± 0.054
H25: V -0.507 ± 0.059
